Consider three proteins from the PETadex activity labels (doi:10.1038/s41467-023-40233-w).

Substrate in the data set: pcPET (post-consumer)
In words: Proxy for plastic degradation [Released monomer concentration (HPLC/LC-MS) (TPA+MHET+BHET)]. To be noted: pH 9.

Positions count from the first letter of the chain named.

B1: unnamed (protein)
chain: MLSFLRSTGRPERRRASLPALLLFTAALVASGLTAAPAAQAADNPYQRGPDPTNASIEAATGPFAVGTQPIVGASGFGGGQIYYPTDTSQTYGAVVIVPGFISVWAQLNWLGPRLASQGFVVIGIETSVITDLPDPRGDQALAALDWATTRSPVASRIDRTRLAAAGWSMGGGGLRRAALQRPSLKAIVGMAPWNGERNWSAVTVPTLFFGGSSDAVASPNDHAKPFYNSITRAEKDYIELRNADHFFPTSANTTMAKYFISWLKRWVDNDTRYRQFLCPGPSTGLFAPVSASMNTCPF
B1: the “Proxy for plastic degradation” value (40 °C, 24 h) was found to be 270 µM.

B2: unnamed (protein)
chain: B1 chain with A155R, R275T
B2: the “Proxy for plastic degradation” value (40 °C, 24 h) was found to be 870 µM.

B3: unnamed (protein)
chain: B1 chain with R275T
B3: where the note is “60 °C, 6 h”, the “Proxy for plastic degradation” value is 60 µM.
